Experimental findings from patent US20260049140A1 (JANUX THERAPEUTICS, published 2026) are described below.

T1: TROP2 (human, UniProt P09758 27-274, limits assumed, biotinylated (site not stated))
T1 construct: also called TROP2-biotin; tumor-associated calcium signal transducer 2
T1 sequence (looked up): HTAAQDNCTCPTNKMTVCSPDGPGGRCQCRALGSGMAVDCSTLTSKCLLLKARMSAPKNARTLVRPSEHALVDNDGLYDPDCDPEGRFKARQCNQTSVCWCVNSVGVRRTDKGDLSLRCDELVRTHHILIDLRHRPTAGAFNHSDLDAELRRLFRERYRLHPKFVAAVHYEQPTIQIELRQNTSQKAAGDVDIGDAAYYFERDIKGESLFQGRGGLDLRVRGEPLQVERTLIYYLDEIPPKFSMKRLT

T2: Cyno CD3 (Antigen was biotinylated for capture on the plate (per card); site of biotin and any vendor tag not stated in the passages seen.)
T2 construct: also called cynomolgus CD3
T2 chain: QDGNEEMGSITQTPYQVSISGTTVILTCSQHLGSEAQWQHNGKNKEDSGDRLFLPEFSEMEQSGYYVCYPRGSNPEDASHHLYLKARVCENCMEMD

T3: human TROP2-biotin (human, UniProt P09758 27-274, limits assumed, biotinylated (site not stated))
T3 construct: also called hTROP2-Biotin; Biotinylated TROP2
T3 sequence (looked up): T1 sequence (looked up)

B1: Peptide-11 (peptide)
peptide: GSACLGPEWEVCPY
modifications: cysteine pairing not given here; also: biotinylated when captured in ELISA
notes: also called 1596
B2: TCE-32 (bispecific antibody)
light: DIQLTQSPSSLSASVGDRVSITCKASQDVSIAVAWYQQKPGKAPKLLIYSASYRYTGVPDRFSGSGSGTDFTLTISSLQPEDFAVYYCQQHYITPLTFGAGTKVEIKRTVAAPSVFIFPPSDEQLKSGTASVVCLLNNFYPREAKVQWKVDNALQSGNSQESVTEQDSKDSTYSLSSTLTLSKADYEKHKVYACEVTHQGLSSPVTKSFNRGEC
heavy: not shown
notes: anti-CD3 scFv F240A; anti-TROP2 Fab F108A
B3: TCE-29 (bispecific antibody)
light: B2 light
heavy: not shown
notes: anti-CD3 scFv wt; anti-TROP2 Fab F108A
B4: TCE-26 (anti-CD3 scFv F240A; anti-TROP2 HC wt) (bispecific antibody)
light: B2 light
heavy: not shown
notes: scFv-Fab; the entry already carries the mutation; also called 3098
B5: TCE-32 (anti-CD3 scFv F240A; anti-TROP2 (F108A) HC) (bispecific antibody)
light: B2 light
heavy: not shown
notes: scFv-Fab; the entry already carries the mutations
B6: TCE-34 (anti-CD3 scFv, several mutations; anti-TROP2 (F108A) HC) (bispecific antibody)
light: B2 light
heavy: not shown
notes: as for B5
B7: TCE-34 (bispecific antibody)
light: B2 light
heavy: not shown
notes: anti-CD3 scFv N30Q, I109V, G172A, V231A; anti-TROP2 Fab F108A
B8: TCE-33 (anti-CD3 scFv, several mutations; anti-TROP2 (F108A) HC) (bispecific antibody)
light: B2 light
heavy: EVQLVESGGGLVQPGGSLKLSCAASGFTFNKYAMNWVRQASGKGLEWVGRIRSKYNNYATYYADSVKDRFTISRDDSKNTAYLQMNSLKTEDTAVYYCVRHGNFGNSYISYWAYWGQGTLVTVSSGGGGSGGGGSGGGGSQTVVTQEPSFSVSPGGTVTLTCRSSTGAVTSGNYANWVQQTPGQAPRGLIGGTKFLAPGVPDRFSGSILGNKAALTITGAQADDESDYYCVLWYSNRWVFGGGTKLTVLGGGGSQVQLQQSGSELKKPGASVKVSCKASGYTFTNYGMNWVKQAPGQGLKWMGWINTYTGEPTYTDDFKGRFAFSLDTSVSTAYLQISSLKADDTAVYFCARGGFGSSYWYADVWGQGSLVTVSSASTKGPSVFPLAPSSKSTSGGTAALGCLVKDYFPEPVTVSWNSGALTSGVHTFPAVLQSSGLYSLSSVVTVPSSSLGTQTYICNVNHKPSNTKVDKKVEPKSC
notes: as for B5
B9: TCE-37 (bispecific antibody)
light: B2 light
heavy: not shown
notes: anti-CD3 scFv F104A; anti-TROP2 Fab D109A
B10: Peptide-4 (peptide)
peptide: DWCWYSPDNDGLCD
modifications: cysteine pairing not given here; also: biotinylated when captured in binding ELISA
notes: also called 1446
B11: Peptide-12 (peptide)
peptide: YLCGPDADETLACY
modifications: cysteine pairing not given here; also: biotinylated when captured in ELISA
B12: Peptide-13 (peptide)
peptide: YLCGPDTDETLACY
modifications: cysteine pairing not given here; also: biotinylated, site not given here
B13: Peptide-5 (peptide)
peptide: SECLVDLQSDPCYW
modifications: cysteine pairing not given here; also: biotinylated when captured in binding ELISA
notes: also called 1454

One test deals with T4, TCE-15.
T4 construct: anti-CD3 scFv W112A; anti-TROP2 Fab wt; also called 3087
Nature of the test: competition ELISA, peptide titrated vs TCE binding to captured CD3. In general terms: An ELISA detects its analyte on a solid surface through an enzyme-linked reagent.

A further test deals with T5, TCE-19.
T5 construct: anti-CD3 scFv W233A; anti-TROP2 Fab wt; also called 3091
The description is as above.

In another test the target is T6, TCE-24.
T6 construct: anti-CD3 scFv W238A; anti-TROP2 Fab wt; also called 3096
The test is described as above.

The target of test [1] is T7, CD3ε (human, UniProt P07766 23-126, limits assumed, biotinylated (site not stated)).
T7 construct: also called CD3-biotin; CD3E
Nature of the test: ELISA, biotinylated CD3 captured on neutravidin coated plates, HRP secondary antibody, OD 450 nm.

The target in test [2] is T1, TROP2. Nature of the test: ELISA, biotinylated TROP2 captured on neutravidin coated plates, HRP secondary antibody, OD 450 nm.
The target of test [3] is T1, TROP2. Described as above. The source holds these as a separate data set.
Test [4] deals with T1, TROP2. Described as above. The source holds these as a separate data set.
Test [5] addresses T8, human CD3ε-biotin (human, UniProt P07766 23-126, limits assumed, biotinylated (site not stated)).
T8 construct: also called CD3E-bio; CD3E-biotin
The test is described as follows: BLI (Octet), summary table.

In test [6] the target is T8, human CD3ε-biotin. Nature of the test: ELISA, biotinylated CD3ε on neutravidin plates.
A further test addresses T2, Cyno CD3. The test is described as follows: Cyno CD3 binding ELISA, TCE titrated.
Test [7] deals with T8, human CD3ε-biotin. Nature of the test: Human CD3 binding ELISA, TCE titrated.
In test [8] the target is T8, human CD3ε-biotin. Nature of the test: ELISA, biotinylated CD3ε captured on neutravidin plate, TCE titrated; table row head prints EC50 without a unit, unit taken from the axis Log [TCE nM].
The target of test [9] is T8, human CD3ε-biotin. Nature of the test: ELISA, biotinylated CD3ε captured on neutravidin plate, TCE titrated.
Test [10] addresses T8, human CD3ε-biotin. The description is as above. The source holds these as a separate data set.
The target in test [11] is T7, CD3ε. Nature of the test: ELISA, biotinylated CD3 captured on neutravidin coated plates, HRP secondary antibody, OD 450 nm. This is another data set of the same source.
Test [12] deals with T8, human CD3ε-biotin. The test is described as follows: BLI (Octet), human CD3-biotin 10 nM on sensor, 50 nM TCE. On the technique in general: BLI is a label-free optical method that tracks binding on a fibre tip over time.
Test [13] addresses T3, human TROP2-biotin. Nature of the test: BLI (Octet), human TROP2-biotin 10 nM on sensor, 50 nM TCE.
The target of test [14] is T7, CD3ε. The test is described as follows: ELISA, biotinylated CD3 captured on neutravidin coated plates, HRP secondary antibody, OD 450 nm. This is another data set of the same source.
In test [15] the target is T1, TROP2. The test is described as follows: ELISA, biotinylated TROP2 captured on neutravidin coated plates, HRP secondary antibody, OD 450 nm. The source holds these as a separate data set.
Test [16] addresses T3, human TROP2-biotin. Nature of the test: ELISA, biotinylated TROP2 captured on neutravidin plate, TCE titrated; table row head prints EC50 without a unit, unit taken from the axis Log [TCE nM].
The next test has as its target T9, TCE-4.
T9 construct: anti-CD3 scFv H101A; anti-TROP2 Fab wt; also called 3076
Nature of the test: competition ELISA, peptide titrated vs TCE binding to captured CD3.

For the next test, the target named is T10, TCE-6.
T10 construct: anti-CD3 scFv N103A; anti-TROP2 Fab wt; also called 3078
The test is described as above.

In another test the target is T11, TCE-1.
T11 construct: anti-CD3 scFv wt fused to anti-TROP2 Fab HC wt
The test is described as follows: competition ELISA: peptide titrated and pre-incubated with a constant concentration of TCE-1; TCE-1 bound to plate-captured biotinylated CD3 is detected (blocked ligand: CD3).

A further test has as its target T12, TCE-30.
T12 construct: anti-CD3 scFv H101A; anti-TROP2 Fab F108A
Nature of the test: competition ELISA, peptide titrated vs TCE binding to captured CD3.

The test “TCE-32” addresses B2. The description is as above.
The test “TCE-29” concerns the target B3. The description is as above.
Another test has as its target T13, TCE-33.
T13 construct: anti-CD3 scFv with P41S; E227D set of mutations; anti-TROP2 Fab F108A
The test is described as above.

A further test has as its target T14, TCE-3.
T14 construct: anti-CD3 scFv R100A; anti-TROP2 Fab wt; also called 3075
Described as above.

Read-outs that look alike come from different tables or passages of the source. Ends that are not written are not given here.

As to B1, the 50% inhibitory concentration (IC50) with TCE-15, in the test with TCE-19 and with TCE-24 was > 100000 nM in each case.
B2: the EC50 (read off the curve) (in general, the concentration giving half of the maximal effect) was ~0.6 nM in the test with CD3ε [1] and ~0.7 nM with TROP2 [2].
Regarding B3, the 50% effective concentration (EC50 (read off the curve)) in the test with TROP2 [3] was ~2 nM; with TROP2 [4] it was ~0.9 nM.
On to B4, for which the “CD3 t1/2” value with human CD3ε-biotin [5] turned out to be 39 s. A half-maximal response in the test with human CD3ε-biotin [6] (EC50) required 0.6 nM.
As to B5, the concentration giving a half-maximal response (EC50) – broadly, the concentration giving half of the maximal effect – in the test with Cyno CD3 turned out to be 0.482 nM; in the test with human CD3ε-biotin [7], 0.531 nM; with human CD3ε-biotin [8] it was 0.938 nM.
Consider B6, for which the EC50 with Cyno CD3 was 0.354 nM; with human CD3ε-biotin [7], 0.382 nM; in the test with human CD3ε-biotin [9], 0.356 nM; in the test with human CD3ε-biotin [10], 0.376 nM.
Take B7: the “EC50 (read off the curve)” value is ~0.6 nM with CD3ε [11] and ~2 nM with TROP2 [3].
In the case of B8, the values for the Kd with human CD3ε-biotin [12] and with human TROP2-biotin [13] were 0.467 nM and 1.22 nM, respectively.
For the molecule B9, the 50% effective concentration (EC50 (read off the curve)) with CD3ε [14] was ~0.6 nM; with TROP2 [15] it was ~0.7 nM. Also, in the test with human TROP2-biotin [16], the midpoint of the response, the EC50, lay at 0.893 nM.
For B10, the results for the IC50 with TCE-4, with TCE-6 and in the test with TCE-15 were > 100000 nM, 4590 nM and > 100000 nM, respectively. Moreover, the “IC50 (read off the curve)” value with TCE-1 is ~2000 nM.
For B11, the IC50 with TCE-30 and with TCE-32 was > 100000 nM in each case.
As for B12, the IC50 with TCE-29, with TCE-30, in the test with TCE-32 and with TCE-33 was > 100000 nM each time.
In the case of B13, the IC50 with TCE-3 and in the test with TCE-4 was > 100000 nM each time. Further, the “IC50 (read off the curve)” value with TCE-1 is ~3000 nM.
